In assay [1] the target is T1, human sclerostin (SOST) (human, UniProt Q9BQB4 24-213).
T1 construct: also called human SOST; h-SOST
T1 sequence (looked up): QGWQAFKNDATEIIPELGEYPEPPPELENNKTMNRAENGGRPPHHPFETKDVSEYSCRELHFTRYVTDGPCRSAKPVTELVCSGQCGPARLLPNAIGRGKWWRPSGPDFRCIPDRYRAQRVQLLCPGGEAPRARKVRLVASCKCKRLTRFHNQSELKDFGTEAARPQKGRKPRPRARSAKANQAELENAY
The assay can be described thus: ELISA binding to human sclerostin (Test Example 1).

Assay [2] concerns the target T1, human sclerostin (SOST). The experiment in a line: blocking of human SOST binding to human LRP-6 (Test Example 2).

B1: murine anti-human SOST monoclonal antibody Ab-1 (antibody, V domains shown)
VH: EVQLQQSGPELVKPGTSVKIPCQTSGYTFTDYNLDWLKQRPGESLEWIGDIDPNNGDILYNQKFRDKATLTVDTSSNTAYLELRSLTSEDTAVYYCARRWAYYFDYWGQGTTLTISS
VL: NIVMTQTPKLLFVSAGDRITITCKASQSVSNDVAWYQQKPGQSPKLLIYYTSNRFTGVPDRFTGSGYGTDFTLTINTVQAEDLAVYFCQQDYSSPVTFGAGTKLELK
notes: Murine antibody from the hybridoma cell strain Ab-1; also called murine Ab-1
B1 displayed an EC50 in the assay with human sclerostin (SOST) [1] of 0.701 nM. In the assay with human sclerostin (SOST) [2], this molecule returned an IC50 of 9.91 nM.

The record behind these values is patent US20200199209A1 (JIANGSU HENGRUI MEDICINE, published 2020).
